Laboratory results as given in the supplement of paper PMC9116672.
± gives the standard deviation of the averaged measurements or the uncertainty stated by the source.

Tests used:
[1] = duplex melting temperature (HRM, EvaGreen); higher = more stable duplex
Protocol: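 Listed DNA strand annealed 1:1 with its complementary strand (95 °C 5 min, 0.1 °C/s to 20 °C). Melted in 1x NNE buffer (500 mM NaCl, 10 mM Na2HPO4, 1 mM EDTA, pH 7.0) with 1x EvaGreen on a LightCycler96 (37 to 97 °C, 0.1 °C/s). Tm is the peak of -dF/dT at the stated total duplex concentration; 4 replicates are averaged. PS oligos are non-stereospecific (Rp/Sp mixtures).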

[2] = duplex formation enthalpy ΔH (Van't Hoff fit of HRM Tm); higher = less exothermic duplex formation; settings: temperature for dG: 50 °C, NaCl: 500 mM (unadjusted)
Protocol: (§1)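 Duplex of the listed DNA strand with its complement, in 1x NNE buffer (500 mM NaCl, pH 7.0) with 1x EvaGreen. ΔH and ΔS come from a Van't Hoff linear fit of 1/Tm against ln(CT/4) over 1-20 uM, using HRM Tm values.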

[3] = duplex formation entropy ΔS (Van't Hoff fit of HRM Tm); higher = smaller entropy loss on duplex formation; settings: temperature for dG: 50 °C, NaCl: 500 mM (unadjusted)
Protocol: as §1

[4] = duplex formation free energy ΔG50 (Van't Hoff fit of HRM Tm); higher = less stable duplex; settings: temperature for dG: 50 °C, NaCl: 500 mM (unadjusted)
Protocol: as §1

[5] = duplex concentration 1 µM, backbone: PO-PO (both strands phosphodiester DNA)
[6] = duplex concentration 1 µM, backbone: PS-PO (listed strand fully phosphorothioate, complement phosphodiester)
[7] = duplex concentration 1 µM, backbone: PS-PS (both strands fully phosphorothioate)
[8] = duplex concentration 2.5 µM, backbone: PO-PO (both strands phosphodiester DNA)
[9] = duplex concentration 2.5 µM, backbone: PS-PO (listed strand fully phosphorothioate, complement phosphodiester)
[10] = duplex concentration 2.5 µM, backbone: PS-PS (both strands fully phosphorothioate)
[11] = duplex concentration 5 µM, backbone: PO-PO (both strands phosphodiester DNA)
[12] = duplex concentration 5 µM, backbone: PS-PO (listed strand fully phosphorothioate, complement phosphodiester)
[13] = duplex concentration 5 µM, backbone: PS-PS (both strands fully phosphorothioate)
[14] = duplex concentration 7.5 µM, backbone: PO-PO (both strands phosphodiester DNA)
[15] = duplex concentration 7.5 µM, backbone: PS-PO (listed strand fully phosphorothioate, complement phosphodiester)
[16] = duplex concentration 7.5 µM, backbone: PS-PS (both strands fully phosphorothioate)
[17] = duplex concentration 10 µM, backbone: PO-PO (both strands phosphodiester DNA)
[18] = duplex concentration 10 µM, backbone: PS-PO (listed strand fully phosphorothioate, complement phosphodiester)
[19] = duplex concentration 10 µM, backbone: PS-PS (both strands fully phosphorothioate)
[20] = duplex concentration 15 µM, backbone: PO-PO (both strands phosphodiester DNA)
[21] = duplex concentration 15 µM, backbone: PS-PO (listed strand fully phosphorothioate, complement phosphodiester)
[22] = duplex concentration 15 µM, backbone: PS-PS (both strands fully phosphorothioate)
[23] = duplex concentration 20 µM, backbone: PO-PO (both strands phosphodiester DNA)
[24] = duplex concentration 20 µM, backbone: PS-PO (listed strand fully phosphorothioate, complement phosphodiester)
[25] = duplex concentration 20 µM, backbone: PS-PS (both strands fully phosphorothioate)
[26] = backbone: PO-PO (both strands phosphodiester DNA)
[27] = backbone: PS-PO (listed strand fully phosphorothioate, complement phosphodiester)
[28] = backbone: PS-PS (both strands fully phosphorothioate)

| Sequence | duplex melting temperature [1, 5] [°C] | duplex melting temperature [1, 6] [°C] | duplex melting temperature [1, 7] [°C] | duplex melting temperature [1, 8] [°C] | duplex melting temperature [1, 9] [°C] | duplex melting temperature [1, 10] [°C] | duplex melting temperature [1, 11] [°C] | duplex melting temperature [1, 12] [°C] | duplex melting temperature [1, 13] [°C] | duplex melting temperature [1, 14] [°C] | duplex melting temperature [1, 15] [°C] | duplex melting temperature [1, 16] [°C] | duplex melting temperature [1, 17] [°C] | duplex melting temperature [1, 18] [°C] | duplex melting temperature [1, 19] [°C] | duplex melting temperature [1, 20] [°C] | duplex melting temperature [1, 21] [°C] | duplex melting temperature [1, 22] [°C] | duplex melting temperature [1, 23] [°C] | duplex melting temperature [1, 24] [°C] | duplex melting temperature [1, 25] [°C] | duplex formation enthalpy ΔH [2, 26] [kcal/mol] | duplex formation enthalpy ΔH [2, 27] [kcal/mol] | duplex formation enthalpy ΔH [2, 28] [kcal/mol] | duplex formation entropy ΔS [3, 26] [cal/mol/K] | duplex formation entropy ΔS [3, 27] [cal/mol/K] | duplex formation entropy ΔS [3, 28] [cal/mol/K] | duplex formation free energy ΔG50 [4, 26] [kcal/mol] | duplex formation free energy ΔG50 [4, 27] [kcal/mol] | duplex formation free energy ΔG50 [4, 28] [kcal/mol] |
| --- | --- | --- | --- | --- | --- | --- | --- | --- | --- | --- | --- | --- | --- | --- | --- | --- | --- | --- | --- | --- | --- | --- | --- | --- | --- | --- | --- | --- | --- | --- |
| GTGAGCAGAAGGGGTT | 64.4 ± 0.57 | 59.41 ± 0.21 | 51.01 ± 0.18 | 66.59 ± 0.48 | 62.57 ± 0.13 | 54.75 ± 0.25 | 68.752 ± 0.066 | 64.68 ± 0.15 | 56.88 ± 0.17 | 70.17 ± 0.27 | 66 ± 0.37 | 58.06 ± 0.31 | 71.2 ± 0.18 | 66.75 ± 0.18 | 58.956 ± 0.043 | 72.73 ± 0.15 | 68.05 ± 0.21 | 60.17 ± 0.3 | 73.73 ± 0.092 | 69.05 ± 0.47 | 60.93 ± 0.33 | -71 ± 3.3 | -71.4 ± 2 | -66.3 ± 3 | -180 ± 9.6 | -184 ± 6 | -174 ± 8.9 | -12.7 ± 0.19 | -11.81 ± 0.093 | -10.06 ± 0.071 |
| CCGCTCAGAGTAGAGA | 62.75 ± 0.41 | 56.777 ± 0.05 | 49.2 ± 0.5 | 65.47 ± 0.19 | 59.67 ± 0.14 | 52.58 ± 0.28 | 67.54 ± 0.15 | 61.84 ± 0.13 | 54.81 ± 0.14 | 68.92 ± 0.084 | 63.04 ± 0.11 | 55.91 ± 0.17 | 69.87 ± 0.13 | 63.88 ± 0.14 | 56.68 ± 0.077 | 71.25 ± 0.081 | 65.05 ± 0.1 | 57.72 ± 0.067 | 72.15 ± 0.098 | 65.94 ± 0.14 | 58.67 ± 0.3 | -72.8 ± 1.1 | -73.5 ± 1.1 | -68.9 ± 2.6 | -187 ± 3.2 | -193 ± 3.2 | -183 ± 8 | -12.5 ± 0.059 | -11.31 ± 0.042 | -9.673 ± 0.048 |
| GATCTCTCTATCATCGTTTATTGGGTAT | 73.08 ± 0.33 | 62.69 ± 0.48 | 55.1 ± 0.83 | 73.89 ± 0.35 | 64.3 ± 0.58 | 57.06 ± 0.4 | 74.81 ± 0.38 | 65.57 ± 0.42 | 58.33 ± 0.34 | 75.52 ± 0.2 | 66.23 ± 0.5 | 59.33 ± 0.081 | 76.276 ± 0.075 | 66.83 ± 0.22 | 59.89 ± 0.23 | 77.239 ± 0.047 | 67.61 ± 0.095 | 60.59 ± 0.19 | 77.914 ± 0.069 | 68.11 ± 0.096 | 61.27 ± 0.12 | -141 ± 12 | -122 ± 3.9 | -109 ± 3 | -377 ± 36 | -335 ± 11 | -301 ± 9 | -18.9 ± 0.91 | -14.3 ± 0.18 | -11.5 ± 0.081 |
| TTGAAAACCCATGTGC | 60.23 ± 0.095 |  | 44.39 ± 0.2 | 62.8 ± 0.81 | 56.79 ± 0.24 | 47.54 ± 0.18 | 64.91 ± 0.47 | 59.35 ± 0.12 | 49.47 ± 0.39 | 66.29 ± 0.13 | 60.57 ± 0.15 | 50.5 ± 0.34 | 67.33 ± 0.16 | 61.45 ± 0.1 | 51.45 ± 0.23 | 68.7 ± 0.13 | 62.67 ± 0.086 | 52.45 ± 0.36 | 69.66 ± 0.17 | 63.58 ± 0.29 | 53.33 ± 0.26 | -69.1 ± 1.7 | -68.7 ± 2.4 | -69.7 ± 2.8 | -177 ± 5 | -180 ± 7.1 | -189 ± 8.7 | -11.8 ± 0.082 | -10.62 ± 0.078 | -8.581 ± 0.024 |
| ACTGTATCGCCCTA |  |  | 43.6 ± 0.65 | 64.04 ± 0.18 |  | 47.26 ± 0.29 | 65.3 ± 0.12 | 57.4 ± 0.95 | 50.2 ± 0.33 | 66.7 ± 0.24 | 60.1 ± 0.84 | 51.8 ± 0.45 | 68.35 ± 0.2 | 61.56 ± 0.48 | 54.55 ± 0.45 | 69.55 ± 0.22 | 62.93 ± 0.27 | 57.15 ± 0.42 | 70.51 ± 0.2 | 63.73 ± 0.26 | 59.2 ± 0.59 | -70.4 ± 6 | -56.7 ± 6.8 | -40.3 ± 2.8 | -181 ± 18 | -144 ± 20 | -97.5 ± 8.7 | -12 ± 0.31 | -10.2 ± 0.24 | -8.829 ± 0.042 |
| AGGAGTGAATGAAATGG | 59.4 | 54.5 | 43.7 ± 0.16 | 62.1 ± 0.68 | 57.08 ± 0.11 | 46.44 ± 0.17 | 64.64 ± 0.23 | 59.096 ± 0.041 | 48.39 ± 0.29 | 65.704 ± 0.056 | 60.13 ± 0.11 | 49.32 ± 0.19 | 66.73 ± 0.088 | 61.02 ± 0.073 | 50.27 ± 0.12 | 68.03 ± 0.15 | 62.13 ± 0.11 | 51.3 ± 0.13 | 69.03 ± 0.084 | 62.93 ± 0.16 | 52.15 ± 0.22 | -69.7 ± 2.4 | -78 ± 1.6 | -73.4 ± 2.2 | -179 ± 7 | -208 ± 4.8 | -201 ± 6.7 | -11.71 ± 0.11 | -10.85 ± 0.05 | -8.33 ± 0.02 |
| CGATTTTGTCAAGCCT | 64.1 | 52.6 | 45 ± 0.64 | 64.84 ± 0.3 | 55.56 ± 0.073 | 48.27 ± 0.26 | 66.53 ± 0.27 | 57.82 ± 0.17 | 50.1 ± 0.15 | 67.75 ± 0.37 | 58.86 ± 0.14 | 51.53 ± 0.24 | 68.64 ± 0.33 | 59.74 ± 0.12 | 52.43 ± 0.088 | 70.02 ± 0.072 | 60.94 ± 0.033 | 53.55 ± 0.096 | 70.68 ± 0.17 | 61.81 ± 0.11 | 54.55 ± 0.15 |  | -74 ± 2.7 | -66.5 ± 1.8 |  | -197 ± 8.1 | -179 ± 5.5 |  | -10.45 ± 0.08 | -8.766 ± 0.018 |
| TGTAAGACTTCTGCCAGAAA | 69.04 ± 0.47 |  | 51.3 ± 0.66 | 70.48 ± 0.32 | 62.5 ± 0.74 | 54 ± 0.63 | 71.8 ± 0.086 | 64.36 ± 0.58 | 56.14 ± 0.29 | 72.66 ± 0.2 | 65.49 ± 0.58 | 57.54 ± 0.21 | 73.31 ± 0.13 | 66.18 ± 0.34 | 58.2 | 73.99 ± 0.12 | 67.16 ± 0.27 |  |  | 67.83 ± 0.18 |  | -126 ± 6.9 | -87.2 ± 3.7 | -73.5 ± 1.4 | -339 ± 20 | -231 ± 11 | -196 ± 4.2 | -16.7 ± 0.45 | -12.4 ± 0.17 | -10.11 ± 0.025 |
| CAAGCCTCGATTTTGT |  |  | 46.56 ± 0.31 | 64.39 ± 0.47 | 56.69 ± 0.17 | 50.11 ± 0.18 | 66.83 ± 0.17 | 58.85 ± 0.28 | 52.41 ± 0.077 | 68.04 ± 0.08 | 60.19 ± 0.34 | 53.632 ± 0.045 | 68.83 ± 0.17 | 60.95 ± 0.27 | 54.55 ± 0.083 | 70.12 ± 0.2 | 62.25 ± 0.24 | 55.802 ± 0.033 | 71.17 ± 0.15 | 63.14 ± 0.43 | 56.6 ± 0.35 | -72.5 ± 2.1 | -71.3 ± 1.6 | -63.1 ± 2.1 | -186 ± 6 | -188 ± 4.9 | -167 ± 6.5 | -12.29 ± 0.11 | -10.63 ± 0.052 | -9.148 ± 0.028 |
